Experimental data published in US20200181257A1 (Chugai, published 2020).
Like-named read-outs stand apart in the source and are kept apart here.

T1: human Fcγ receptor hFcgRIIb (human, UniProt P31994 43-217, limits assumed)
T1 construct: Construct used in the SPR assay is not described; also called FcγRIIb; FcγIIB
T1 sequence: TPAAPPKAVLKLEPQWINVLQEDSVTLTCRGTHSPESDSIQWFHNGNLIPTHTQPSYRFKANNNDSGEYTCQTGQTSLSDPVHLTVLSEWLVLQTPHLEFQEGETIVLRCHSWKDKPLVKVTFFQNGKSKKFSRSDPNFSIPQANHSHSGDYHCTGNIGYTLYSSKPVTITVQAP

T2: human Fcγ receptor hFcgRIIa (R) (human, UniProt P12318 36-217)
T2 construct: also called FcγRIIa (type R); FcγIIA
T2 chain: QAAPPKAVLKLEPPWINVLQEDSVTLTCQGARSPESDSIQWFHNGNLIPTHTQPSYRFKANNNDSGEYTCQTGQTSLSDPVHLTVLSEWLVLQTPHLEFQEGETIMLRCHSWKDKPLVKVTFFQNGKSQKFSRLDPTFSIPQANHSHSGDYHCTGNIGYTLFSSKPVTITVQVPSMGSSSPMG

T3: human Fcγ receptor hFcgRIIa (H) (human, UniProt P12318 36-217)
T3 construct: also called FcγRIIa (type H); FcγIIA
T3 sequence: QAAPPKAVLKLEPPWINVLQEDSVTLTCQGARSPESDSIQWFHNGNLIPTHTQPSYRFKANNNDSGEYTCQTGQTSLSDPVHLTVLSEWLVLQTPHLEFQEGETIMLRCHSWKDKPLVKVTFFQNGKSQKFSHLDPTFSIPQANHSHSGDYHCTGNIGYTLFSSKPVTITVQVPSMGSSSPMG


Key:
Assay in all cases: SPR, antibody captured on Protein A
[1] = target: T1, human Fcγ receptor hFcgRIIb
Description: (§1) The CH2 domain, which was modified in this examination, is known to be involved in interaction with several human Fcγ receptors (hereinafter denoted as hFcgRs) which affect effector functions. Therefore, the binding of TS1 and TS19 prepared by using the H chain of anti-IL6R produced in Example 2 to hFcgRs was measured, according to the method described in Reference Example 3.
(§2) Interactions between antibodies and hFcgRs (hFcgRIa, hFcgRIIa(R), hFcgRIIa(H), hFcgRIIb, hFcgRIIIa(F), and hFcgRIIIa(V)) were analyzed using Biacore T100 (GE Healthcare). HBS-EP+(GE Healthcare) was used for the running buffer, and the measurement temperature was set at 25° C. Protein A (Invitrogen) was immobilized by the amino coupling method, and an antibody of interest was captured thereon. Then, hFcγR solutions diluted using the running buffer were injected to allow interaction with the captured antibody at a flow rate of 30 μL/min for five minutes for hFcγRIa, and at a flow rate of 5 μL/min for one minute for the other hFcγRs. […] Since the hFcγR binding level depends on the amount of captured antibodies, the FcgR-binding levels were corrected so that the capture level of each antibody would be 200 RU (resonance unit) for hFcgRIa and 1000 RU (resonance unit) for the other hFcgRs. The captured antibodies were washed by allowing 10 mM glycine-HCl (pH 1.5) to react for 30 seconds at a flow rate of 30 μL/min to recycle the chip for reuse.

[2] = target: T2, human Fcγ receptor hFcgRIIa (R)
Description: as §1, §2

[3] = target: T4, human Fcγ receptor hFcgRIa (human, UniProt P12314 16-292, limits assumed)
T4 construct: Construct used in the SPR assay is not described; also called hFcγRIa; FcγI
Description: as §1, §2

[4] = target: T3, human Fcγ receptor hFcgRIIa (H)
Description: as §1, §2

[5] = target: T5, human Fcγ receptor hFcgRIIIa (V) (human, UniProt P08637 17-208)
T5 construct: also called FcγRIIIa allotype V158; FcγIIIA
Description: as §1, §2

[6] = target: T1, human Fcγ receptor hFcgRIIb; remark: listed apart in the source
Description: (§3) Furthermore, binding ability to hFcgRs was measured by the method described in Reference Example 3.
as §2

[7] = target: T2, human Fcγ receptor hFcgRIIa (R)
Description: as §3, §2

[8] = target: T4, human Fcγ receptor hFcgRIa; remark: listed apart in the source
Description: as §3, §2

[9] = target: T3, human Fcγ receptor hFcgRIIa (H); remark: listed apart in the source
Description: as §3, §2

[10] = target: T5, human Fcγ receptor hFcgRIIIa (V); remark: listed apart in the source
Description: as §3, §2

T4 sequence (P12314 16-292 limits assumed): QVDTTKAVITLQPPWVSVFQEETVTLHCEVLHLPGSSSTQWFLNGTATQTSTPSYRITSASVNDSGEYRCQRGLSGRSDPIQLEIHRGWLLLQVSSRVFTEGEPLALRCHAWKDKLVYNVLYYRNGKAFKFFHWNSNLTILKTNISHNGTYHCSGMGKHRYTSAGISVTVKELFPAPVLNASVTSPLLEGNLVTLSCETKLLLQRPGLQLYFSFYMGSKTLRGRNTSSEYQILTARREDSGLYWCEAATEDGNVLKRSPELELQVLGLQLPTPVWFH
T5 sequence (P08637 other isoform, or with tags, fused parts or gaps limits assumed): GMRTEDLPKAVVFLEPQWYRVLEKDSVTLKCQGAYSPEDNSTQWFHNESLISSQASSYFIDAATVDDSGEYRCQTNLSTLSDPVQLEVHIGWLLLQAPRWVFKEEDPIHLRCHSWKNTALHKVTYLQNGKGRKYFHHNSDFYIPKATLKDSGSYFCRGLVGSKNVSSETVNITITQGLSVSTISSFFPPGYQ

binding relative to G1 (=100) [1]	binding relative to G1 (=100) [2]	binding relative to G1 (=100) [3]	binding relative to G1 (=100) [4]	binding relative to G1 (=100) [5]	binding relative to G1 (=100) [6]	binding relative to G1 (=100) [7]	binding relative to G1 (=100) [8]	binding relative to G1 (=100) [9]	binding relative to G1 (=100) [10]	Binder
61.6	67.3	98.3	123	130						TS2 (antibody, anti-IL6R IgG1, G1d with V266I/H268Q/E269D/D270E (EU); also called TS02) heavy: QVQLQESGPGLVRPSQTLSLTCTVSGYSITSDHAWSWVRQPPGRGLEWIGYISYSGITTYNPSLKSRVTMLRDTSKNQFSLRLSSVTAADTAVYYCARSLARTTAMDYWGQGSLVTVSSASTKGPSVFPLAPSSKSTSGGTAALGCLVKDYFPEPVTVSWNSGALTSGVHTFPAVLQSSGLYSLSSVVTVPSSSLGTQTYICNVNHKPSNTKVDKKVEPKSCDKTHTCPPCPAPELLGGPSVFLFPPKPKDTLMISRTPEVTCVVVDISQDEPEVKFNWYVDGVEVHNAKTKPREEQYNSTYRVVSVLTVLHQDWLNGKEYKCKVSNKALPAPIEKTISKAKGQPREPQVYTLPPSRDELTKNQVSLTCLVKGFYPSDIAVEWESNGQPENNYKTTPPVLDSDGSFFLYSKLTVDKSRWQQGNVFSCSVMHEALHNHYTQKSLSLSP light: not shown
					112	106	101	106	96.6	TS61 (antibody, anti-IL6R IgG1, G1d with G385D/Q386P/N389S (EU)) heavy: QVQLQESGPGLVRPSQTLSLTCTVSGYSITSDHAWSWVRQPPGRGLEWIGYISYSGITTYNPSLKSRVTMLRDTSKNQFSLRLSSVTAADTAVYYCARSLARTTAMDYWGQGSLVTVSSASTKGPSVFPLAPSSKSTSGGTAALGCLVKDYFPEPVTVSWNSGALTSGVHTFPAVLQSSGLYSLSSVVTVPSSSLGTQTYICNVNHKPSNTKVDKKVEPKSCDKTHTCPPCPAPELLGGPSVFLFPPKPKDTLMISRTPEVTCVVVDVSHEDPEVKFNWYVDGVEVHNAKTKPREEQYNSTYRVVSVLTVLHQDWLNGKEYKCKVSNKALPAPIEKTISKAKGQPREPQVYTLPPSRDELTKNQVSLTCLVKGFYPSDIAVEWESNDPPESNYKTTPPVLDSDGSFFLYSKLTVDKSRWQQGNVFSCSVMHEALHNHYTQKSLSLSP light: not shown
3.4	1.2	63	1.2	1.4						TS13 (antibody, anti-IL6R IgG1, G1d with S267P/H268M/D270F (EU)) heavy: QVQLQESGPGLVRPSQTLSLTCTVSGYSITSDHAWSWVRQPPGRGLEWIGYISYSGITTYNPSLKSRVTMLRDTSKNQFSLRLSSVTAADTAVYYCARSLARTTAMDYWGQGSLVTVSSASTKGPSVFPLAPSSKSTSGGTAALGCLVKDYFPEPVTVSWNSGALTSGVHTFPAVLQSSGLYSLSSVVTVPSSSLGTQTYICNVNHKPSNTKVDKKVEPKSCDKTHTCPPCPAPELLGGPSVFLFPPKPKDTLMISRTPEVTCVVVDVPMEFPEVKFNWYVDGVEVHNAKTKPREEQYNSTYRVVSVLTVLHQDWLNGKEYKCKVSNKALPAPIEKTISKAKGQPREPQVYTLPPSRDELTKNQVSLTCLVKGFYPSDIAVEWESNGQPENNYKTTPPVLDSDGSFFLYSKLTVDKSRWQQGNVFSCSVMHEALHNHYTQKSLSLSP light: not shown
126	117	99.8		86.2						TS7 (antibody, anti-IL6R IgG1, G1d with K326S/S324H/A330H (EU); also called TS07) heavy: QVQLQESGPGLVRPSQTLSLTCTVSGYSITSDHAWSWVRQPPGRGLEWIGYISYSGITTYNPSLKSRVTMLRDTSKNQFSLRLSSVTAADTAVYYCARSLARTTAMDYWGQGSLVTVSSASTKGPSVFPLAPSSKSTSGGTAALGCLVKDYFPEPVTVSWNSGALTSGVHTFPAVLQSSGLYSLSSVVTVPSSSLGTQTYICNVNHKPSNTKVDKKVEPKSCDKTHTCPPCPAPELLGGPSVFLFPPKPKDTLMISRTPEVTCVVVDVSHEDPEVKFNWYVDGVEVHNAKTKPREEQYNSTYRVVSVLTVLHQDWLNGKEYKCKVHNSALPHPIEKTISKAKGQPREPQVYTLPPSRDELTKNQVSLTCLVKGFYPSDIAVEWESNGQPENNYKTTPPVLDSDGSFFLYSKLTVDKSRWQQGNVFSCSVMHEALHNHYTQKSLSLSP light: not shown
21.7	25.3	96.8	15.9	28.9						TS16 (antibody, anti-IL6R IgG1, G1d with Q295M/Y296G/S298G (EU)) heavy: QVQLQESGPGLVRPSQTLSLTCTVSGYSITSDHAWSWVRQPPGRGLEWIGYISYSGITTYNPSLKSRVTMLRDTSKNQFSLRLSSVTAADTAVYYCARSLARTTAMDYWGQGSLVTVSSASTKGPSVFPLAPSSKSTSGGTAALGCLVKDYFPEPVTVSWNSGALTSGVHTFPAVLQSSGLYSLSSVVTVPSSSLGTQTYICNVNHKPSNTKVDKKVEPKSCDKTHTCPPCPAPELLGGPSVFLFPPKPKDTLMISRTPEVTCVVVDVSHEDPEVKFNWYVDGVEVHNAKTKPREEMGNGTYRVVSVLTVLHQDWLNGKEYKCKVSNKALPAPIEKTISKAKGQPREPQVYTLPPSRDELTKNQVSLTCLVKGFYPSDIAVEWESNGQPENNYKTTPPVLDSDGSFFLYSKLTVDKSRWQQGNVFSCSVMHEALHNHYTQKSLSLSP light: not shown
